Measurements from patent publication US20240115742A1, “FLUORINATED FIBERS FOR MULTIMODAL 1H AND 19F MRI, ULTRASOUND, FLUORESCENCE DETECTION AND CONFORMATIONAL AND TEMPERATURE DETECTION BY 19F MRS” (New York University, priority 2022, published 2024).
Square brackets hold non-standard residues; d marks the D form. Ends that are not written are not given here. LTF = trifluoroleucine

Experiments:
Type in all cases: physicochemical
[1] = TEM of protein fibers; settings: for average protein fiber diameter (TEM): fibers, 50 mM NaH2PO4 pH 4.0
Experimental: (§1) Transmission Electron Microscopy. Transmission electron microscopy (TEM) images were taken with a FEI Talos L120C transmission electron microscope. Protein fiber samples were diluted to 50 μM and 3 μL was spotted on Formvar/carbon-coated copper grids followed by 5 μL wash with water, and 3 μL staining with 1% v/v uranyl acetate solution each with incubation times of 1 min at RT. Fibrils were sized in ImageJ software (Version 1.52q).
as §1, with “Samples” for “Protein fiber samples”, “by a” for “by”, “min. Between steps, filter paper was used to wick the grids. Following imaging, fibrils” for “min at RT. Fibrils”

[2] = Confocal microscopy of CCM-bound fibers; settings: for fiber diameter after CCM binding (confocal): 50 μM protein saturated with CCM, pH 4.0
Experimental: Confocal Microscopy. Protein bound to CCM was studied by measuring 50 μM protein samples saturated with CCM as determined by fluorescent spectroscopic drug binding with a final 1% v/v DMSO (or 2×Kd). 10 μL of protein was added to a micro slide and a 22×22 mm #1 microscope cover glass. Slides were inverted and imaged using a Leica TCS SP8 X Laser Confocal Microscope using a dry 10× objective at RT. CCM was excited using a 460 nm line of the laser, and images were taken using a 470 to 550 nm detection window.
Confocal Microscopy. Q2LTF was diluted to 50 μM and saturated with 40 μM of curcumin (solubilized in DMSO) as determined by the binding affinity in drug-binding experiments. […] 5 μL of sample was deposited onto a microslide and covered with a 22×22 mm #1 microscope cover glass. Images were taken with a Leica TCS SP8 X laser confocal microscope using a dry 10× objective at RT. Samples were excited at 460 nm and images were taken with a 470-550 nm detection window.

[3] = ATR-FTIR peak deconvolution of secondary structure
Experimental: Attenuated Total Reflectance-Fourier Transform Infrared Spectroscopy. Secondary structure of protein fiber variants was confirmed using attenuated total reflectance-Fourier transform infrared (ATR-FTIR) spectroscopy using the Nicolet 6700 Fourier Transform Infrared Spectrometer equipped with a diamond ATR accessory and a mercury cadmium telluride (MCT)-A detector. Spectra were collected for 5 μL of 500 μM protein from 4000-400 cm^−1 with 0.5 cm^−1 increments at room temperature (RT). For CCM bound protein, protein was bound at a final concentration of 500 μM and saturated with CCM as determined by fluorescent spectroscopic drug binding with a final 1% v/v DMSO. Sample spectra were normalized using buffer background and analyzed from 1700-1600 cm^−1 corresponding to the amide I region. Peaks were deconvoluted using Gaussian functions in PeakFit software until the goodness of fit reached r^2≥0.99. Peaks were associated with secondary structure were determined by methods known in the art.
(§2) Attenuated Total Reflectance-Fourier Transform Infrared Spectroscopy. Secondary structure of Q2 protein was confirmed using attenuated total reflectance-Fourier transform infrared (ATR-FTIR) spectroscopy using the Nicolet 6700 Fourier Transform Infrared Spectrometer equipped with a diamond ATR accessory and a mercury cadmium telluride (MCT)-A detector. Spectra were collected for 5 μL of 2 mM protein from 4000-400 cm^−1 with 0.5 cm^−1 increments. Sample spectra were normalized using buffer background and analyzed from 1700-1600 cm^−1 corresponding to the amide I region. Peaks were deconvoluted using Gaussian functions in PeakFit software until the goodness of fit reached r^2>0.99.
as §2, with “of Q2LTF and QLTF” for “of Q2”, “using a” for “using the”, “of 1” for “of 2”, “with 4.0” for “with 0.5”, “reached r^2≥0.99.” for “reached r^2>0.99.”
Attenuated Total Reflectance-Fourier Transform Infrared Spectroscopy. Secondary structure before (solution) and after gelation (gel) was also assessed by peak deconvolution of attenuated total reflectance-Fourier transform infrared (ATR-FTIR) spectra. ATR-FTIR measurements were performed using a Nicolet 6700 Fourier Transform Infrared Spectrometer equipped with a mercury cadmium telluride (MCT)-A detector. Spectra were collected for 5 μL samples of protein at 2 mM from 4000-400 cm^−1 with a 4.0 cm^−1 resolution, normalized, and buffer-subtracted prior to analysis from 1700-1600 cm^−1, corresponding to the amide I region. ATR-FTIR measurements were performed immediately after concentration to 2 mM for solution measurements and after. Peaks were deconvoluted using Gaussian functions in PeakFit software until the goodness of fit reached r^2≥0.99.

[4] = CD temperature scans (melting temperature)
Experimental: Circular Dichroism Spectroscopy. Secondary structure was first assessed using the Jasco J-815 CD spectrometer with a PTC-423S single position Peltier temperature control system. Wavelength scans were performed from 190 to 250 nm using 15 μM samples at 1 nm step sizes at 25° C. Temperature scans were performed at α-helical minimum 222 nm from 20 to 85° C. The mean residue ellipticity (MRE) was calculated as described previously. MRE at 222 nm and 208 nm and their ratios were used to assess relative helicity.
Circular Dichroism Spectroscopy. The secondary structure of Q2LTF and QLTF was assessed using a Jasco J-815 circular dischroism (CD) spectrometer with a PTC-423S single position Peltier temperature control system. Wavelength scans were performed from 195 to 250 nm at 1 nm step sizes by diluting the protein into water (at approximately 10 μM) in order to minimize the effects of sodium chloride. […] The mean residue ellipticity (MRE) was calculated as described.

Substance: Q2LTF: protein-engineered fluorinated coiled-coil fiber, Q2 with trifluoroleucine, SEQ ID NO: 20 (MRGSHHHHHHGSIEGRVKE[LTF][LTF]F[LTF]KKTAEQM[LTF]EE[LTF]KETNKA[LTF]HDVRH[LTF][LTF]ENQSK[LTF]; ends and bridges not checked) [Protein Q2LTF]
- fiber assembly size by TEM ([1]; 2 mM, 50 mM Tris, 500 mM NaCl, pH 8.0, 4 °C, n=20): 215.8±38.6 nm
- diameter of large fiber aggregates ([1]; as E88): ≤ 840 nm
- median fiber diameter ([1]; as E88): 181.7 nm
- striation (protofibril) size by TEM ([1]; n=20): 3.6±0.8 nm
- average fiber diameter after CCM binding (confocal) ([2]; 50 μM Q2LTF, 40 μM curcumin): 10.8±5.4 μm
- α-helical content [3]: 42.4±8.6%
- aggregated strands ([3]; fluorinated constructs, Tris buffer): 6.8 % composition
- melting temperature ([4]; in only water): 32.6±1.6 °C
- melting temperature ([4]; phosphate buffer (50 mM Na2HPO4, pH 8.0)): 65.0±2.9 °C

Substance: Q: rationally designed pentameric coiled-coil derived from C, SEQ ID NO: 23 (MRGSHHHHHHGSIEGRVKEITFLKNTAPQMLRELQETNAALQDVRELLRQQSKL) [reference compound]
- average protein fiber diameter (TEM) [1]: 208±82 nm
- fiber diameter after CCM binding (confocal) [2]: 14.74±5.501 μm
- aggregated strands ([3]; native): 6.0%
- antiparallel β-sheet/aggregated strands ([3]; native): 13.0%
- aggregated strands ([3]; w/CCM): 15.4 ± 3.8%
- antiparallel β-sheet/aggregated strands ([3]; w/CCM): 7.8%
- melting temperature ([4]; CCM-bound, pH 4.0): 76.4±4.6 °C
- melting temperature ([4]; native, 50 mM NaH2PO4 pH 4.0): 37.0±7.8 °C

Substance: Q2: coiled-coil protein redesigned from Q for reduced lateral assembly, SEQ ID NO: 11 (MRGSHHHHHHGSIEGRVKELLFLKKTAEQMLEELKETNKALHDVRHLLENQSKL) [Protein Q2]
- average protein fiber diameter (TEM) [1]: 91±37 nm
- fiber diameter after CCM binding (confocal) [2]: 7.17±2.19 μm
- aggregated strands ([3]; Gel, 2 mM): 2.3 % composition
- aggregated strands ([3]; Solution, 2 mM): 2.1 % composition
- aggregated strands ([3]; native): 3.9%
- antiparallel β-sheet/aggregated strands ([3]; native): 20.6%
- change in α-helical content upon gelation ([3]; solution to gel): +12.8%
- aggregated strands ([3]; w/CCM): 10.6%
- antiparallel β-sheet/aggregated strands ([3]; w/CCM): 0.0%
- melting temperature ([4]; CCM-bound, pH 4.0): 59.9±6.3 °C
- melting temperature ([4]; native, 50 mM NaH2PO4 pH 4.0): 43.4±4.0 °C

Substance: Q3: Q variant with V44I pore mutation, SEQ ID NO: 12 (MRGSHHHHHHGSIEGRVKEILFLKNTAYQMLLELKETNEALYDIRHLLQQQSKL) [Protein Q3]
- average protein fiber diameter (TEM) [1]: 130±27 nm
- fiber diameter after CCM binding (confocal) [2]: 8.04±1.78 μm
- aggregated strands ([3]; native): 5.2%
- antiparallel β-sheet/aggregated strands ([3]; native): 6.8%
- aggregated strands ([3]; w/CCM): 17.8%
- antiparallel β-sheet/aggregated strands ([3]; w/CCM): 7.6%
- melting temperature ([4]; CCM-bound, pH 4.0): 61.9±2.0 °C
- melting temperature ([4]; native, 50 mM NaH2PO4 pH 4.0): 61.0±4.9 °C
